Measurements from US5641629, “Spectroscopically detectable nucleic acid ligands”.

What was measured:
alpha-thrombin [1] = target: T1, alpha-thrombin (Homo sapiens, UniProt P00734;P00734 P00734:328-363,P00734:364-622); test: FP; 140 mM NaCl, 20 mM Tris acetate, 1 mM CaCl2, 5 mM KCl, 1 mM MgCl2, pH 7.4, room temperature; delta mP +80
serum albumin (HSA) [2] = target: T2, serum albumin (HSA) (Homo sapiens, UniProt P02768 P02768:25-609); test: FP; HSA up to 660 nM; settings: tags: Sigma; label: 5'-thiazole orange (C3 linker)
Method: (§1) The fluorescence polarization of the reaction mixtures was measured directly using 12×75 mm borosilicate glass test tubes. The maximum change in fluorescence polarization was reported as ΔmP (millipolarization units). As reported below in Table 1, the data represent the average of three readings at ambient temperature.

serum albumin (HSA) [3] = target: T2, serum albumin (HSA); test: FP; HSA up to 1080 nM; settings: tags: Sigma; label: fluorescein tethered at the T7 phosphorothioate via iodoacetamide
Method: A thrombin solution was prepared at 600 nM for the highest concentration in the same buffer as was used for Compound 1 in Example 3. Serial dilutions of this solution were then prepared to give a range of concentrations from 0.045 nM to 600 nM.
Compound 6 was then added to a sample of each dilution of thrombin solution and HSA solution to a concentration of 2.3 nM, then vortexed and let stand at room temperature for 15 minutes before fluorescence measurement was taken as described in Example 3. The data from the measurements is presented below as the average of three readings at ambient temperature.

alpha-thrombin [4] = target: T1, alpha-thrombin; test: FP; 140 mM NaCl, 20 mM Tris acetate, 1 mM CaCl2, 5 mM KCl, 1 mM MgCl2, pH 7.4, room temperature; delta mP +55
serum albumin (HSA) [5] = target: T2, serum albumin (HSA); test: FP; HSA up to 150 nM; settings: tags: Sigma; label: 5'-fluorescein (6-FAM, C6 linker)
Method: as §1

alpha-thrombin [6] = target: T1, alpha-thrombin; test: FP; 140 mM NaCl, 20 mM Tris acetate, 1 mM CaCl2, 5 mM KCl, 1 mM MgCl2, pH 7.4, room temperature; delta mP +25
alpha-thrombin [7] = target: T1, alpha-thrombin; test: FP; no detectable binding; anisotropy 0.0403 free, 0.0445 with thrombin
serum albumin (HSA) [8] = target: T2, serum albumin (HSA); test: FP; no detectable binding by fluorescence anisotropy; settings: tags: Sigma; label: fluorescein (C6 linker)
Method: Compound 4 was the control prepared in Example 1, and as such was added to the thrombin dilutions and HSA dilutions at the same respective concentrations of Compounds 1, 2 and 3 above. Similarly, Compound 4 was then subjected to the same conditions as Compounds 1, 2 and 3, and analyzed with an SLM instrument to determine anisotropy values as described in Example 4 below.

alpha-thrombin [9] = target: T1, alpha-thrombin; test: FP; 140 mM NaCl, 20 mM Tris acetate, 1 mM CaCl2, 5 mM KCl, 1 mM MgCl2, pH 7.4, room temperature; delta mP +52
serum albumin (HSA) [10] = target: T2, serum albumin (HSA); test: FP; HSA up to 247 nM; anisotropy 0.04429 free, 0.04433 with HSA; settings: tags: Sigma; label: 5'-fluorescein (6-FAM, C6 linker)
neutrophil elastase = neutrophil elastase (Homo sapiens, UniProt P08246 P08246:30-267); test: FP; 150 mM NaCl, 2 mM MgCl2, 6 mM KCl, 10 mM Tris, pH 7.0, room temperature; delta mP +30; settings: tags: Athens Research Technology; label: 5'-fluorescein (6-FAM, C6 linker)
neutrophil elastase, sequence (P08246 30-267, one chain of several): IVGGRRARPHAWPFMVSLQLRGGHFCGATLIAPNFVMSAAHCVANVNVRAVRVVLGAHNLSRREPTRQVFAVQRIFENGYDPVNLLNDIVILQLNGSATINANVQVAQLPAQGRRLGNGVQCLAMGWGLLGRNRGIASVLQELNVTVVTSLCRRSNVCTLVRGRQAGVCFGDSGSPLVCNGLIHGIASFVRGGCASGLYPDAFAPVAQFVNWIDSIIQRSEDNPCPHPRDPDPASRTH
Method: An elastase solution was prepared from human neutrophil elastase (Athens Research Technology) at 180 nM for the highest concentration in a buffer of 150 mM NaCl, 2 mM MgCl_2, 6 mM KCl, 10 mM TRIS, pH 7.0. Serial dilutions of this solution were then prepared to give a range of concentrations from 0.027 nM to 180 nM.
as §1

B1: Compound 3 (ssDNA)
DNA: GGTTGGTGTGGTTGG
Kd (alpha-thrombin [1]): 5.7 nM | binding result (serum albumin (HSA) [2]): no binding

B2: Compound 6 (ssDNA)
DNA: GGTTGGTGTGGTTGG
modifications: PS between G6 and T7
binding result (serum albumin (HSA) [3]): no binding | Kd (alpha-thrombin [4]): 11.1 nM

B3: Compound 2 (ssDNA)
DNA: CAGTCCGTGGTAGGGCAGGTTGGGGTGACTTCGTGGAA
binding result (serum albumin (HSA) [5]): no binding | Kd (alpha-thrombin [6]): 1.5 nM

B4: Compound 4 (scrambled control) (ssDNA)
DNA: GGTGGTGGTTGTGGT
binding result (alpha-thrombin [7]): no binding | binding result (serum albumin (HSA) [8]): no binding

B5: Compound 1 (ssDNA)
DNA: GGTTGGTGTGGTTGG
Kd (alpha-thrombin [9]): 2 nM | binding result (serum albumin (HSA) [10]): no binding

B6: Compound 5 (ssDNA)
DNA: TAGCGATACTGCGTGGGTTGGGGCGGGTAGGGCCAGCAGTCTCGT
Kd (neutrophil elastase): 2.6 nM
